Experimental data reported in patent US20120004175A1 (RESEARCH FOUNDATION OF STATE UNIVERSITY OF NEW YORK, published 2012).

Target: T1, NF-κB p65 (mouse, intestinal epithelial cells of wild-type C57BL/6J and Min mice) (mouse, UniProt Q04207 1-549)
T1 construct: Endogenous mouse protein
Assay: anti-p65 immunoprecipitation of nuclear extract from mouse intestinal epithelial cells, immunoblot

T1 sequence (Q04207 whole entry): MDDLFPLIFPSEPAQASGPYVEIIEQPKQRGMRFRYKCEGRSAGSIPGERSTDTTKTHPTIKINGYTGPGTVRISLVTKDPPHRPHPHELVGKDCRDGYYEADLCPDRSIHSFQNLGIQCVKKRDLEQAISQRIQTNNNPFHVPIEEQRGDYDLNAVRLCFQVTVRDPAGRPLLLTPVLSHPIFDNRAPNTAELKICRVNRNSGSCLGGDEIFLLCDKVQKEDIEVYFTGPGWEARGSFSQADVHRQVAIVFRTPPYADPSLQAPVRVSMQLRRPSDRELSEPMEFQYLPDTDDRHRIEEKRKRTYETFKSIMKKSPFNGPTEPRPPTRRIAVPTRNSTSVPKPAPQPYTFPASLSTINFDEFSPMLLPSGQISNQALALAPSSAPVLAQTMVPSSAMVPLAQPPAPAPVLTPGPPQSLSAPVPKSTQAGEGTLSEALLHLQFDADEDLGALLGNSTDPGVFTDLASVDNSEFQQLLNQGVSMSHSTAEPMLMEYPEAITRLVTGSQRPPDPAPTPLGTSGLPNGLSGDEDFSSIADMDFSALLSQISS

B1: annexin 1 (mouse, intestinal epithelial cells of wild-type C57BL/6J and Min mice) (other, UniProt P10107 2-346, looked up)
chain: AMVSEFLKQARFLENQEQEYVQAVKSYKGGPGSAVSPYPSFNVSSDVAALHKAIMVKGVDEATIIDILTKRTNAQRQQIKAAYLQENGKPLDEVLRKALTGHLEEVVLAMLKTPAQFDADELRGAMKGLGTDEDTLIEILTTRSNEQIREINRVYREELKRDLAKDITSDTSGDFRKALLALAKGDRCQDLSVNQDLADTDARALYEAGERRKGTDVNVFTTILTSRSFPHLRRVFQNYGKYSQHDMNKALDLELKGDIEKCLTTIVKCATSTPAFFAEKLYEAMKGAGTRHKALIRIMVSRSEIDMNEIKVFYQKKYGISLCQAILDETKGDYEKILVALCGGN
notes: Endogenous mouse protein; also called induced annexin 1
binding result: binds
